The results in this text go back to publication PMC9201872.

Like-named read-outs stand apart in the source and are kept apart here.

Broadly, the Kd is the equilibrium constant for the complex coming apart. What is called stoichiometry N is the number of molecules, sites or subunits per partner or assembly.

In assay [1] the target is TIM-SNAP-HA (Timeless, S-TIM) (Drosophila melanogaster). Briefly: pull-down.
Assay [2] shares this target. The experiment in a line: pull-down. This is another data set of the same source.
Assay [3] has the same target. The experiment in a line: native gel or EMSA. In general terms: Mobility shift assays separate free from complexed probe on a gel.
Assay [4] has the same target. Briefly: pull-down. This is another data set of the same source.

Sequence of TIM-SNAP-HA (Timeless, S-TIM) (Drosophila melanogaster) (A4V040 whole entry): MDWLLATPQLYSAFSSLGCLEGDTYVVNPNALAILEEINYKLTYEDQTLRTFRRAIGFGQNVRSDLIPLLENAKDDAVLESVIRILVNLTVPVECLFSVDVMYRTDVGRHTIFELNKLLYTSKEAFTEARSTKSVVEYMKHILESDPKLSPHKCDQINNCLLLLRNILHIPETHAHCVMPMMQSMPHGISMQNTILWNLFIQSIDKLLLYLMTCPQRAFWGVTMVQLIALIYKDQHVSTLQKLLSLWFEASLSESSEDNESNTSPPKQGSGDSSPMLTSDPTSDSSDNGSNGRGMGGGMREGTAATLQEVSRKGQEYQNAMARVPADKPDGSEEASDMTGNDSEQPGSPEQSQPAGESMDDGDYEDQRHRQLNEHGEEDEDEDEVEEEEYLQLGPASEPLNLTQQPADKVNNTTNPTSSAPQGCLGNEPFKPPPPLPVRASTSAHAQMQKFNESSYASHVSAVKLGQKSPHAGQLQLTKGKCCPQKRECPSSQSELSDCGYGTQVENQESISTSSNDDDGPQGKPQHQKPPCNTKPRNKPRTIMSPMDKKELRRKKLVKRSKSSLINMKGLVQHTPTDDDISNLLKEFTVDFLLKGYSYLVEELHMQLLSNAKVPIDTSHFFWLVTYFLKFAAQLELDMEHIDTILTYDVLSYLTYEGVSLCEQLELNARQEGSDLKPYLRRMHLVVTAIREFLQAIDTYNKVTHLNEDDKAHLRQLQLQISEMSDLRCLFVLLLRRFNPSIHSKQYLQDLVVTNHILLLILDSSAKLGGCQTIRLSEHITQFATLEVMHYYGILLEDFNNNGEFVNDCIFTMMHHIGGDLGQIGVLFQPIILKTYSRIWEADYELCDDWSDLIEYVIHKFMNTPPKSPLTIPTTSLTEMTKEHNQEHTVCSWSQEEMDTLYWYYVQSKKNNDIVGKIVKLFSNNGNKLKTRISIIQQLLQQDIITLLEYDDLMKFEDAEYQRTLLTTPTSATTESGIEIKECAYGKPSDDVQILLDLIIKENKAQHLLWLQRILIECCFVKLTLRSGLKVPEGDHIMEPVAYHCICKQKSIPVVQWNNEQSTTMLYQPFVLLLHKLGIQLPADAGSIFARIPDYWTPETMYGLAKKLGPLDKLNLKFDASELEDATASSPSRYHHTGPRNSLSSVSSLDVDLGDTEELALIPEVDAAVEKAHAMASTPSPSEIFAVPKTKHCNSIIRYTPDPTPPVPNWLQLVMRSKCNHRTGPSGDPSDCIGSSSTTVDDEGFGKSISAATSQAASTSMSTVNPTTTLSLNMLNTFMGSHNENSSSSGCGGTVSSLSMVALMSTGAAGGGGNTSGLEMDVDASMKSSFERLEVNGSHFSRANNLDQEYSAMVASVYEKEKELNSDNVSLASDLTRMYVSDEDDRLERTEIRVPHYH

“CLIP-CRY H377A (from UniProt O77059 1-539) (natural protein)” gave a Kd in assay [1] of 18.1 µM.

Turning to “CLIP-CRY H377L (from UniProt O77059 1-539) (natural protein)”, the fold greater affinity than CRYΔ in assay [1] and in assay [2] was 10 fold each time.

For the substance “CLIP-CRY W394F (from UniProt O77059 1-539) (natural protein)”, the fold difference in KD against CRYΔ in assay [1] was 35 fold.

Turning to “CLIP-CRYΔ (residue 1-520) (from UniProt O77059 1-520) (domain or fragment)”, the dissociation constant Kd worked out at 1.7 µM in assay [1] and 1.5 µM in assay [4]. Further, the stoichiometry N in assay [3] was determined as 1.08.
